This is an account of results in patent US20190142905A1 (UREKA SARL, published 2019).

Experiment in all cases: cell-based or functional assay
In test [1] the target is human glucagon receptor expressed in transfected CHO cells (human, UniProt P47871 26-477).
The target in test [2] is T1, mouse GLP-1 receptor endogenously expressed in βTC6 cells (mouse, UniProt O35659 22-463).
T1 sequence (looked up): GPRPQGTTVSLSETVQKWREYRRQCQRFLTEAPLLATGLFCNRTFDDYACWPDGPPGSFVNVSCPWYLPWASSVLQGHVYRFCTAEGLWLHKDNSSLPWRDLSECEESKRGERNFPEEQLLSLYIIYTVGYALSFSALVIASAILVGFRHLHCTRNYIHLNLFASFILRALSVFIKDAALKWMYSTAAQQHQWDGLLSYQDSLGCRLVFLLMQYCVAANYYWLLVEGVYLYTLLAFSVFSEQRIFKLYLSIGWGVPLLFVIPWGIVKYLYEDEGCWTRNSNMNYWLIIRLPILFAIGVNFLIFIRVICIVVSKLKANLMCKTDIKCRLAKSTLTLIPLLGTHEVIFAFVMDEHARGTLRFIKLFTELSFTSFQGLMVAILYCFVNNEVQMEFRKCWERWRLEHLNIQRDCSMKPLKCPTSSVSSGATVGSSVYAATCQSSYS

Test [3] deals with T1, mouse GLP-1 receptor endogenously …. This is another data set of the same source.

Square brackets hold non-standard residues; d marks the D form. Ends that are not written are not given here. A^u = urea residue with alanine side chain

B1: Compound 57 (peptide)
peptide: HSQGTFTSDYSKYLDSRRAQDFVQXLXNT
modifications: A^u at position 25 (urea residue with alanine side chain); Nle (norleucine) at position 27
Regarding B1, in test [1], the “EC50, Glucagon Functional Assay (cAMP production, HTRF)” value (“EC50, Glucagon Functional Assay” below) was found to be 22 nM.

B2: Compound 35 (peptide)
peptide: HSQGTFTSDYSKYLDSRRAQDFVQWLXXT
modifications: Nle (norleucine) at position 27; A^u at position 28 (urea residue with alanine side chain)
For B2, the “EC50, Glucagon Functional Assay” value in test [1] worked out at 0.44 nM. With HAEGTFTSDVSSYLEGQAAKEFIAWLXKGRG (A^u at position 27 (urea residue with alanine side chain)) [Compound 7], in test [2], the “EC50, GLP-1 Functional Assay (cAMP production, HTRF)” value (from here on “EC50, GLP-1 Functional Assay”) came to 0.22 nM. As to HAEGTFTSDVSSYXEGQAAKEFIAWLVKGRG (Y^u at position 14 (urea residue with tyrosine side chain)) [Compound 44], in test [2], the “EC50, GLP-1 Functional Assay” value was 0.048 nM. Besides, the “% bioactivity of reference (reference compound 1)” value (from here on “% bioactivity of reference”) in test [3] was found to be 150%. In the case of HAEGTFTSDVSSYLEGQAAKEFIXWLVKGRG (A^u at position 24 (urea residue with alanine side chain)) [Compound 2], the “EC50, GLP-1 Functional Assay” value in test [2] is 1.5 nM. Take XAEGTFTSDVSSYLEGQAAKEFIAWLVKGRG (H^u at position 1 (urea residue with histidine side chain)) [Compound 12]: the “EC50, GLP-1 Functional Assay” value in test [2] came out at 280 nM.

For HAEGTFTSDVSSYLEGQXAKEFIAWLVKGRG (A^u at position 18 (urea residue with alanine side chain)) [Compound 45], the “EC50, GLP-1 Functional Assay” value in test [2] turned out to be 0.036 nM. Besides, in test [3], the “% bioactivity of reference” value amounted to 200%. With HAEGTFTSDVSSYLEGQAAKEFIAXLVKGRG (A^u at position 25 (urea residue with alanine side chain)) [Compound 3], in test [2], the “EC50, GLP-1 Functional Assay” value was found to be 0.46 nM. The same measure, in the same setting: the value for HAEGTFTSDVSSYLEGQAAKEFIAWXVKGRG (A^u at position 26 (urea residue with alanine side chain)) [Compound 5] was 0.42 nM.

B3: Compound 43 (peptide)
peptide: HXEGTFTSDVSSYLEGQAAKEFIAWLVKGRG
modifications: A^c at position 2 (N,N'-linked carbomyl / carbamate residue with alanine side chain)
As for B3, the “% bioactivity of reference” value in test [3] came to 9%. As for HAEGTFTSDVSSYLEGQAAKEFIAXLVKGRG (W^u at position 25 (urea residue with tryptophan side chain)) [Compound 4], in test [2], the “EC50, GLP-1 Functional Assay” value worked out at 0.26 nM. As to HAEGTFTSDVSSYLEGQAAKEFIAWLVKXRG (G^u at position 29 (urea residue with glycine side chain)) [Compound 25], in test [2], the “EC50, GLP-1 Functional Assay” value worked out at 0.074 nM. HAEGTFTSDVSSYLEGQAAKEFIAWLVXGRG (K^u at position 28 (urea residue with lysine side chain)) [Compound 46]: the “% bioactivity of reference” value in test [3] amounted to 157%. In the case of HAEGTFTSDVSSYLEGQAAKEFIAWLVKGRX (G^u at position 31 (urea residue with glycine side chain)) [Compound 27], the “EC50, GLP-1 Functional Assay” value in test [2] amounted to 0.081 nM.

B4: Compound 53 (peptide)
peptide: HSQGTFTSDYSKYLDSXRAQDFVQWLXNT
modifications: A^u at position 17 (urea residue with alanine side chain); Nle (norleucine) at position 27
B4: the “EC50, Glucagon Functional Assay” value in test [1] was determined as 0.67 nM.

B5: Compound 55 (peptide)
peptide: HSQGTFTSDYSKYLDSRRAQDFXQWLXNT
modifications: A^u at position 23 (urea residue with alanine side chain); Nle (norleucine) at position 27
With B5, in test [1], the “EC50, Glucagon Functional Assay” value came to 34 nM. With H[A^u]EGTFTSDL[A^u]KQLEEEAVRLFIEWLKNGGPSSGAPPSKKKKKK [Compound 73], the “EC50, GLP-1 Functional Assay” value in test [2] came out at 0.34 nM.

B6: Compound 51 (peptide)
peptide: HSQGTFTSDYSKYXDSRRAQDFVQWLXNT
modifications: A^u at position 14 (urea residue with alanine side chain); Nle (norleucine) at position 27
Consider B6, for which the “EC50, Glucagon Functional Assay” value in test [1] was 68 nM.

B7: Compound 36 (peptide)
peptide: HSQGTFTSDYSKYLDSRRAQDFVQWLXNX
modifications: Nle (norleucine) at position 27; A^u at position 29 (urea residue with alanine side chain)
Regarding B7, in test [1], the “EC50, Glucagon Functional Assay” value was found to be 0.026 nM.

B8: Compound 52 (peptide)
peptide: HSQGTFTSDYSKYLDXRRAQDFVQWLXNT
modifications: A^u at position 16 (urea residue with alanine side chain); Nle (norleucine) at position 27
Consider B8, for which the “EC50, Glucagon Functional Assay” value in test [1] was found to be 34 nM.

B9: Compound 58 (peptide)
peptide: HSQGTFTSDYSKYLDSRRAQDFVQWXXNT
modifications: A^u at position 26 (urea residue with alanine side chain); Nle (norleucine) at position 27
Consider B9, for which, in test [1], the “EC50, Glucagon Functional Assay” value turned out to be 35 nM.
